Measurements as given in paper PMC7019770.

What follows are substances tested against PRRSV SD16 virions (PRRSV-2 strain SD16) (assay: ELISA-based virus capture assay). Settings: plates coated with PRA mutant proteins; detection with PRRSV-convalescent swine serum and HRP-labeled goat anti-swine IgG; parent: est. 1.3; read off a plot.

Substance | response
PRA, C-terminal domain of MYH9 (recombinant, wild type) E1670A | 0.95 OD450
PRA, C-terminal domain of MYH9 (recombinant, wild type) E1670A; K1673A; E1679A; I1683A | 1.1 OD450
PRA, C-terminal domain of MYH9 (recombinant, wild type) E1679A | 0.99 OD450
PRA, C-terminal domain of MYH9 (recombinant, wild type) I1683A | 0.88 OD450
PRA, C-terminal domain of MYH9 (recombinant, wild type) K1673A | 0.9 OD450
